Results: the DeepSol protein solubility set

Experiment: soluble on expression in E. coli; label from the status in PepcDB or PDB records

Sequence	soluble on expression in E. coli
HMPSVIVVGGQWGDEGKGSIVAYLSLHDEPEIIARGGVGTNAGHSVVINGKKYAVRQIPTGFMQTKARLLIGAGVLVDPEVFFHELEQLKDFNVKDRVGIDYRCAIIEEKHKQLDRTNGYLHGKIGTTGSGCGPANADRVMRKAKQAKDVKELEPYLTDVAQEINDALDEGSLVLVEGTQGFGLSLYYGTYPYVTSKDVTASSVAADVGIGPTRVDEVIVVFKSFPTRVGAGPFPTEMPMEEADRLGLVEYGTVTGRRRRVGWFDFEMARYSARINGATMLAVTMLDKYDKEAFGVTDYDKLPRKAKEFIEEIEERVGVPVGLIKTGPELEHIIDRRDTI	soluble
DKMTIEVPVLTFVPVQVSAELENRGCWVKFFDKKNFQGDSLFLSGPATLPRLIGPFGYDWENKVRSVKVGPRANLTIFDNHNYRDEDKFLDAGANVANLSKEMGFFDNFRSMVLNCI	soluble
SLNQDEKRTFRLEKEQELRFEVSNENKVYLTLQSGTAEVFGIELPKKKPVELCDTKLAVFTWQGCELQLQGITDLEYVANETPMHLYLKAHYLLDSMRRKARQQGTKGPKVVIVGPQDSGKSSLCQILSCYAMKGGKKILYASIDFQQGSFSIPGAIGASSVEHVTIEDGMIFENNLVYFYGHTVASENPRLLEKLVSNLSNLLDAKLEDSEMDLGHMGFIADSFGSLDGSNYDVLKQVLKEIKANVIIVLGSERLYADIQRDLCSEQRQIIQLPKSGGVVGRDQYLRRRLQEMQLRCYFYGSDGNLNPFTTVVTFDQVHIVRVGIGLHVPATALPLGAQSTLDPLQISQVTPSTELLHCMLGVSQAEEEEQIVDSPVYGFVHVAKVDISKRTISLLAPSPGKLPGSFLVMGSIRWLE	soluble
MGSDKIHHHHHHMTNDAIVIGSGIGGLVTATQLAAKGAKVLVLERYLIPGGSAGYFERQGYRFDVGASMIFGLGQNGTTNLLTRALTAVNVSQDAIADPVQIHYHLPQGLDLKVDRVYEKFLQNLIAHFPHEEKGIRRFYDECQKVFKCLNSMDLLSLEEPWYLLRVFFQHPLACLGLVKYLPQNAGDFARRYIKDPKLLKFIDMECYCWSVVPSDMTPMINAGMVFSDRHYGGVNYPKGGVGQIAQKLVEGLEKAGGKIQYKARVTKILTEKGKAVGVQLANGKVYRGKRIVSNATRWDTFEQLLPAEEMPLNEKKWQQNYQKSPSFLSLHIGVKESVLPVGTECHHILLEGWEKMTAVEGTIFVSIPTLLDPDLAPSGYHIIHAFTPHWIDDWQELSPSEYKAKKEEAAGRIIDRLEKIFPGLDAGLDYLEVGTPRTHRRFLGRQDGSYGPIPRRKLRGLLKMPFNRTAIPGLYCVGDSTFPGQGLNAVAFSGFACAHRIAVDLGF	not soluble
MLRKLSKFSNKGEVFMGLLEGKRALITGVANERSIAYGIAKSFHREGAQLAFTYATPKLEKRVREIAKGFGSDLVVKCDVSLDEDIKNLKKFLEENWGSLDIIVHSIAYAPKEEFKGGVIDTSREGFKIAMDISVYSLIALTRELLPLMEGRNGAIVTLSYYGAEKVVPHYNVMGIAKAALESTVRYLAYDIAKHGHRINAISAGPVKTLAAYSITGFHLLMEHTTKVNPFGKPITIEDVGDTAVFLCSDWARAITGEVVHVDNGYHIMGVFGREEEIKKEVYGD	soluble
MKPPSSIQTSEFDSSDEEPIEDEQTPIHISWLSLSRVNCSQFLGLCALPGCKFKDVRRNVQKDTEELKSCGIQDIFVFCTRGELSKYRVPNLLDLYQQCGIITHHHPIADGGTPDIASCCEIMEELTTCLKNYRKTLIHSYGGLGRSCLVAACLLLYLSDTISPEQAIDSLRDLRGSGAIQTIKQYNYLHEFRDKLAAHLSSRDSQSRSVSR	soluble
MTENVPLTRPQLRRLLRNARRALTPAQQRQATLGLYRQLAQHPLFRRARHIALYLPNDGEIDPRLLMREAQRRGKCIYLPVLHAWPRTRMVFQRFEQGEKLKPNRFRIPEPIIDRKRQRPIWALDLILLPLVGFDEVGGRLGMGGGFYDRSLAYQARRQTWKKPLLLGLAHECQKVERLAQASWDVPLQGTVSDRGWYLAPRLEHHHHHH	soluble
GPGSMNHLAGKIHVVQTPEEGRRFSLEQVVLPVLGNGAERLVSPDGKMREASERLAQELQIEGLMKMKAAPPATYRRLVVRPRDFTYCLFDDERGWCWESNNEAPIRPQLWEDQEGIMRQLSPLSVATGKNIIARNGIRGAEQRSHFLKAARRSGMTCVLRMTLPRGSAVTSALREAFQFATLDPGVIFHLLR	not soluble
STMSGYLYRSKGSKKPWKHLWFVIKNKVLYTYAASEDVAALESQPLLGFTVTLVKDENSESKVFQLLHKGMVFYVFKADDAHSTQRWIDAFQEGTV	soluble
IEVAAIQGNVPRMGLDFNAQRRAVLANHARETLKLDEQVDLVIWPENSSDVNPFSDAQARAIIDGAVEHVQAPILVGTITVDEVGPRNTMQVFDPVEGAAEYHNKKFLQPFGEYMPFREFLRIFSPYVDSAGNFQPGDGTGVVEMNAANLGRAVTVGVMTCYEVIFDRAGRDAIANGAEFLTTPTNNATFGFTDMTYQQLAMSRMRAIEFDRAVVVAATSGVSAIVNPDGSISQNTRIFEAATLTESIPLKDTVTIAARVGFY	not soluble
MNNQFIQRVIFDWNRIDNDSYLKGIEAFKGIEKLDFNKPITFFVGENGSGKSTLLEALAVAHGFNPEGGTKNYVFSTHDTHSELCDAIRIAKGYRKEKWGYFLRAESFYNVATQEEEYADITHPSAKYHEKSHGESFLALAQNNMNPNGLYLFDEPEAALSPQRQLTLLMQIYRCAKEGAQFIIVTHSPILLGIPDADIYCFDNGCIHLCEYEDTESYQVTEMFINNRQMLLDRLLTD	not soluble
VHYGLKGITCVETSISHIDGEKGRLIYRGHHAKDIALNHSFEEAAYLILFGKLPSTEELQVFKDKLAAERNLPEHIERLIQSLPNNMDDMSVLRTVVSALGENTYTFHPKTEEAIRLIAITPSIIAYRKRWTRGEQAIAPSSQYGHVENYYYMLTGEQPSEAKKKALETYMILATEHGMNASTFSARVTLSTESDLVSAVTAALGTMKGPLHGGAPSAVTKMLEDIGEKEHAEAYLKEKLEKGERLMGFGHRVYKTKDPRAEALRQKAEEVAGNDRDLDLALHVEAEAIRLLEIYKPGRKLYTNVEFYAAAVMRAIDFDDELFTPTFSASRMVGWCAHVLEQAENNMIFRPSAQYTGAIPEEV	soluble
GMSDTVLTGLLDTVWQQFGRGTKDRHHPARHPTLATIGTDGPDLRTLVLRAASHAEATLEFHTDAASPKVAHIRRDARVAIHIWIPKASLQVRAKAIAKILPGDPNLFAQLPEAARMNYQGPVPGTPLPAEPDATPNRFTRLICHLSEIDVLHLTTPHQRAVYTAPDWRGIWVSP	soluble
MSTEKEKMIAGELYRSADETLSRDRLRARQLIHRYNHSLAEEHTLRQQILADLFGQVTEAYIEPTFRCDYGYNIFLGNNFFANFDCVMLDVCPIRIGDNCMLAPGVHIYTATHPIDPVARNSGAELGKPVTIGNNVWIGGRAVINPGVTIGDNVVVASGAVVTKDVPDNVVVGGNPARIIKKL	not soluble
MGSDKIHHHHHHMITKEDIVADVVTDYPKSADIFRNAGIDFCCGGQESIASAVNHKPNIDLNSLLNKLNHIDNTEGNSTINPKFLNVESLIQYIQSAYHETLKEEFKNLTPYMTKLAKVHGPSHPYLLKLQDLYREFRDSMLDHIRKEDEEDFPKLIQYSQGQDVQNIKIILEDLINDHEDTGQLLNVMNQLTSDYQTPEEACGTWKLVYQRLQNIERQTHQHVHLENHVLFKKVS	not soluble
MGYNTIPAGKDLPNDIYVAIEIPANASPIKYEIDKDMDALLVDRFMATPMFYPANYGYINNTLADDGDALDVLVITPYPVAPGSVIRARPVGVLKMSDEAGGDEKLLAVPHEKLTQLYNDIHDIDDVPQLLKDQIVHFFEHYKDLEKGKWVKVEGWENADAARAAIVKSAAAYKG	soluble
ELTLRIAYNLFTQRPKEEYDDFARWITMTGPGKGSDVYKMNGAGEMLVFSAADFEDFLEPRPDLMPAMEEELKKVVALLVEHRWPFRLHATYDESISRFLAVFEAVDREIPFRGLRWFFDHAETISNRNLERVRRLGGGIAIQDRMAFQGEYFVARYGAEAAKRTPPIARMLAMGIPVGAGTDATRVSSYNPWLSLYWLVSGKTVGGLPLYDDANRLDRTAALRLYTEGSSWFSGDNGSKGALIAGRHADLAVLSADYFAVPEARIKDIESVLTIMGGKIVHASDEFAPLAPPLPPVSPDWSPVASYGGYHGNAAVSTGLRREPCVCHSHSPAWSGPDPRFWGIGCDCFA	not soluble
MGSDKIHHHHHHMDPVLELEAVSKCFQRYRHPRDRLWELLFPRTSRVQTFQALENISLQVEPGRTIGIVGRNGAGKSTLLQIVAGTLTPSSGRVKVRGRVAALLELGSGFNPEFTGRQNVFFNGQLLGLTPQEIRDRFAEIVAFAEIGDFLDQPVKTYSSGMMVRLAFSVVAHLDPELLIVDEALAVGDARFQARCMKRIRELKEKGTTILFVSHDANAVRMLCDEAVLLEGGRILERGNPNWVLNHYNQLLGLEDRDNYRPLAQETQQAGLCYVEQAAHPNRHGNGRATISKAWLSGSGLQADKVLQGGDLTLTFQLQIHQDLPDALIGLSIRNLYGVVIYGTNNLQLEKRPKALAAGSSPELSFRWRNQLNAGVYTISIAITSEDCEVYDWIDEALVFEVVNDRFCEGVIDLGADLHWISEFSSPAAIATSRDSLGSTSPSS	not soluble
MGSDKIHHHHHHMVGIILASHGEFAEGILQSGAMIFGEQENVKAVTLMPSEGPDDVKAKMQEAIASFDNQDEVLFLVDLWGGTPFNQANSLLEDHKDKWAIVAGMNLPMVIEAYASRFSMESAQEIATHILETAKDGVKVKPEELQPAEAPKAAATEDAQPKGSLPPGTVVGDGKIKFVLARIDSRLLHGQVATAWTKATQPNRIIVVSDAVAKDDLRKKLIEQAAPPGVKANVIPISKMIEVAKDPRFGNTKALLLFENPEDVLKVVEGGVEIPEVNVGSMAHSVGKVVVSKVLSMGQEDVDTFDELKAKGIKFDVRKVPNDSKANMDEILKKAKNELANA	not soluble
MSEGLSFVIQRHQARRLHYDFRLEIDGVLVSWAVPKGPSRDPSVKRLAVHVEDHPLEYGGFSGDIPKGQYGAGHVDIWDSGVWIPRGDPRQGLRRGKLHFALRGRRLAGDWVLVRMSGEQDQWLLRKEDDEALEHHHHHH	not soluble
MGSDKIHHHHHHMTMDAATAVSDQGKQDLPAGDGATLSLKDRIARDLGQRILAGIYAQHAVLPTEAELCVIYGASRTALRDALLTLSAKGLIEARKRAGTRVRVSSEWNRLDAQVLEWMRDIEPDLDFVRGLIEARLVIEPAAAQLAAKMATSGDLAVIEAAYEAMRIAPEDDLAACLDADVRFHTAILRASRNPVFANLGNMLAAALSFSFRLTTSATANYQQTLSAHGDVLEAIRMRRVDDAHDQMKALIGIASNDLLAVARKGRHQQPVPTASADPI	not soluble
GPGSMDPLCSPSAVSINGTPQTSVVNTSSTTSVVASPARPKLNRSVKFDPTIGGPLHSGDLSLDTSFVHGAGGDADAREHYGRRGRADEAATDSPLYSGDVLHEHEELLPFQLTREDVAAAFEFLDVNGSGLLTMGNLKHRLSAFYPHLTSKEYKFLVEDPSGSTGGGGTASSAARSAVAARHGGAADGCGGSTGGPTTSSLAQAASSARPSNLSFDDGGDAVHANGALSGEGVASGVGGSNATSARAGLDVDQLWDLINSFQQLQRTFGAAQAGQAEGQNAQNTRSAFNSSFDAYLVGTHGTQGIRSADIGFDAVGEAFRIYDPHNTHYVEEEVLSCIMARVGFGELTEEELAVLVSTADFDGDGRISLEDFRRLVSMKGRFEK	soluble
